Data on six molecules can be found in patent publication US20180244762A1 (KODIAK SCIENCES, published 2018).

B5: aflibercept (Fc fusion, UniProt P17948 129-230, looked up, not shown: a dimerising Fc or GST)
chain: SDTGRPFVEMYSEIPEIIHMTEGRELVIPCRVTSPNITVTLKKFPLDTLIPDGKRIIWDSRKGFIISNATYKEIGLLTCEATVNGHLYKTNYLTHRQTNTIIDVVLSPSHGIELSVGEKLVLNCTARTELNVGIDFNWEYPSSKHQHKKLVNRDLKTQSGSEMKKFLSTLTIDGVTRSDQGLYTCAASSGLMTKKNSTFVRVHEK
B6: rhVEGFA-165 (ligand, human, UniProt P15692-4 27-191, looked up)
chain: APMAEGGGQNHHEVVKFMDVYQRSYCHPIETLVDIFQEYPDEIEYIFKPSCVPLMRCGGCCNDEGLECVPTEESNITMQIMRIKPHQGQHIGEMSFLQHNKCECRPKKDRARQENPCGPCSERRKHLFVQDPQTCKCSCKNTDSRCKARQLELNERTCRCDKPRR
modifications: biotinylated in Example 34

The target in assay [1] is T1, recombinant human PDGF-BB (human, UniProt P01127 82-190). In words: cell-based or functional assay.
The target of assay [2] is T1, recombinant human PDGF-BB. The experiment in a line: SPR (Biacore T200, 25 C), binder captured by anti-human IgG, PDGF-BB as analyte, run A. The procedure: (§1) Each PDGF/VEGF variant was captured to a level of approximately 150 RUs. The running and sample buffer for the PDGF analysis was HBS-EP+300mM NaCl (10 mM 4-(2-hydroxyethyl)-1-piperazineethanesulfonic acid (HEPES) pH 7.4, 300 mM NaCl, 3mM ethylenediaminetetraacetic acid (EDTA), 0.05% (v/v) Tween-20). […] The surface was then regenerated with a 30 second pulse of 3M MgCl₂, a 30 second pulse of an ionic regeneration buffer (0.46M KSCN, 1.83 M MgCl2, 0.92 M urea, and 1.83 M guanidine-HCI pH7.4, Andersson et al., Analytical Chemistry, 1999) and then equilibrated with a 30 second pulse of HBS-EP+ 300 mM NaCl running buffer.
(§2) All SPR assays were performed at 25° C. with a data collection rate of1Hz using a Biacore T200 instrument (GE Healthcare). The resulting PDGP and VEGP sensorgrams were double referenced using both a control surface and buffer injections. The rate constants were determined by fitting the data to a 1:1 Langmuir model with Biacore T200 evaluation software v2.0 and the equation […].
(SPR reads the build-up and loss of mass on a sensor chip optically.)

Assay [3] concerns the target T1, recombinant human PDGF-BB. The experiment in a line: SPR (Biacore T200, 25 C), binder captured by anti-human IgG, PDGF-BB as analyte, run B. The method, then:
as §1, §2

Assay [4] has as its target T1, recombinant human PDGF-BB. The experiment in a line: competitive ELISA: binder preincubated with 0.2 nM rhPDGF-BB, competitor immobilized PDGFR/Fc. Background: An ELISA detects its analyte on a solid surface through an enzyme-linked reagent.
The target of assay [5] is T1, recombinant human PDGF-BB. In words: optical biosensor (Proteon XPR36 / Biacore 2000), binder amine-coupled, rhPDGF-BB injected, 25 C. The procedure: (§3) Binding studies were performed at 25° C. and 37° C. using BioRad Proteon XPR36 and Biacore 2000 optical biosensors equipped with GLM (Proteon) and CM4 (Biacore) sensor chips and equilibrated with running buffer (10 m/M HEPES, 150 mM NaCl, 0.005% Teen-20, 0.2 mg/ml BSA).

Assay [6] addresses T1, recombinant human PDGF-BB. In words: SPR (Biacore T200, 25 C), binder captured by anti-human IgG, PDGF-BB as analyte, average +/- SD of the runs. The procedure:
as §1, §2

For assay [7], the target named is T1, recombinant human PDGF-BB. The experiment in a line: SPR (Biacore T200, 25 C), binder captured by anti-human IgG, PDGF-BB as analyte, run C. The method, then: as §1, §2
In the assay “rhVEGFA-165” the target is B6. The experiment in a line: cell-based or functional assay.
The assay “aflibercept” deals with B5. In words: optical biosensor (Proteon XPR36 / Biacore 2000), binder amine-coupled, rhVEGFA-165 injected, 25 C. The procedure:
as §3
Binding of the coupled proteins to the ligands was determined by standard methodology.

T1 sequence (P01127 82-190): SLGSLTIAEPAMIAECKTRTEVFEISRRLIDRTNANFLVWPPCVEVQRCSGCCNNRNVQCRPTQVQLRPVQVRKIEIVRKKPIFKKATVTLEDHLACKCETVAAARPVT

B1: TAF443 (PDGFRβ-GS10-anti-VEGF-A heavy chain (L443C)/anti-VEGF-A light chain) (other)
heavy: LVVTPPGPELVLNVSSTFVLTCSGSAPVVWERMSQEPPQEMAKAQDGTFSSVLTLTNLTGLDTGEYFCTHNDSRGLETDERKRLYIFVPDPTVGFLPNDAEELFIFLTEITEITIPCRVTDPQLVVTLHEKKGDVALPVPYDHQRGFSGIFEDRSYICKTTIGDREVDSDAYYVYRLQVSSINVSVNAVQTVVRQGENITLMCIVIGNEVVNFEWTYPRKESGRLVEPVTDFLLDMPYHIRSILHIPSAELEDSGTYTCNVTESVNDHQDEKAINITVVESGGGGGSGGGGSEVQLVESGGGLVQPGGSLRLSCAASGYDFTHYGMNWVRQAPGKGLEWVGWINTYTGEPTYAADFKRRFTFSLDTSKSTAYLQMNSLRAEDTAVYYCAKYPYYYGTSHWYFDVWGQGTLVTVSSASTKGPSVFPLAPSSKSTSGGTAALGCLVKDYFPEPVTVSWNSGALTSGVHTFPAVLQSSGLYSLSSVVTVPSSSLGTQTYICNVNHKPSNTKVDKKVEPKSCDKTHTCPPCPAPEAAGAPSVFLFPPKPKDTLMISRTPEVTCVVVDVSHEDPEVKFNWYVDGVEVHNAKTKPREEQYNSTYRVVSVLTVLHQDWLNGKEYKCKVSNKALPAPIEKTISKAKGQPREPQVYTLPPSREEMTKNQVSLTCLVKGFYPSDIAVEWESNGQPENNYKTTPPVLDSDGSFFLYSKLTVDKSRWQQGNVFSCSVMHEALHNHYTQKSLSCSPGK
light: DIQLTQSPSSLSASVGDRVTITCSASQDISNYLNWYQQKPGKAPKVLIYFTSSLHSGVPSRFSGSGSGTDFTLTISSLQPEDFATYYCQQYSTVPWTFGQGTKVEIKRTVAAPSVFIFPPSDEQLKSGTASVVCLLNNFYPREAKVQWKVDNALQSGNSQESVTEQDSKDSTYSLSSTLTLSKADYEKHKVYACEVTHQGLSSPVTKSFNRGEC
notes: also called OG1321; TAF-443C
In general, Kd refers to the concentration at which binding is half-saturated. Usually koff stands for a measure of how fast the partners let go of each other. What is called kon is a measure of how fast the partners come together. The t½ is the time in which the quantity being followed falls by half. For orientation: IC50 means the concentration needed to halve the response being measured. With B1, the “Inhibition of PDGF induced proliferation of HPVPs, IC50” value in assay [1] is 5000 pM. Moreover, in assay [2], the dissociation constant Kd was determined as 1.54 pM, the koff worked out at 4.96e-05 s⁻¹, the kon was determined as 3.22e+07 M⁻¹ s⁻¹ and the t½ was determined as 3.89 h. Further, in assay [3], the Kd came out at 1.56 pM, the koff turned out to be 8.76e-05 s⁻¹, the kon is 5.62e+07 M⁻¹ s⁻¹ and the t½ was 2.2 h. Further, in assay [4], the half-inhibitory concentration (IC50) was 46 pM. The Kd in [5] was found to be 14 pM. Besides, in assay [6], the Kd amounted to 1.55 pM.

B2: TAF443-6A250K (other)
heavy: LVVTPPGPELVLNVSSTFVLTCSGSAPVVWERMSQEPPQEMAKAQDGTFSSVLTLTNLTGLDTGEYFCTHNDSRGLETDERKRLYIFVPDPTVGFLPNDAEELFIFLTEITEITIPCRVTDPQLVVTLHEKKGDVALPVPYDHQRGFSGIFEDRSYICKTTIGDREVDSDAYYVYRLQVSSINVSVNAVQTVVRQGENITLMCIVIGNEVVNFEWTYPRKESGRLVEPVTDFLLDMPYHIRSILHIPSAELEDSGTYTCNVTESVNDHQDEKAINITVVESGGGGGSGGGGSEVQLVESGGGLVQPGGSLRLSCAASGYDFTHYGMNWVRQAPGKGLEWVGWINTYTGEPTYAADFKRRFTFSLDTSKSTAYLQMNSLRAEDTAVYYCAKYPYYYGTSHWYFDVWGQGTLVTVSSASTKGPSVFPLAPSSKSTSGGTAALGCLVKDYFPEPVTVSWNSGALTSGVHTFPAVLQSSGLYSLSSVVTVPSSSLGTQTYICNVNHKPSNTKVDKKVEPKSCDKTHTCPPCPAPEAAGAPSVFLFPPKPKDTLMISRTPEVTCVVVDVSHEDPEVKFNWYVDGVEVHNAKTKPREEQYNSTYRVVSVLTVLHQDWLNGKEYKCKVSNKALPAPIEKTISKAKGQPREPQVYTLPPSREEMTKNQVSLTCLVKGFYPSDIAVEWESNGQPENNYKTTPPVLDSDGSFFLYSKLTVDKSRWQQGNVFSCSVMHEALHNHYTQKSLSCSPGK
light: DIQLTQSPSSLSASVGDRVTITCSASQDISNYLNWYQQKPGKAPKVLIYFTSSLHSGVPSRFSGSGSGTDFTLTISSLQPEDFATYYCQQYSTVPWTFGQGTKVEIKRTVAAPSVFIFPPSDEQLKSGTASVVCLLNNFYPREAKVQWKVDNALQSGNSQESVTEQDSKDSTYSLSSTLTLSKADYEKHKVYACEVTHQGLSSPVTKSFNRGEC
modifications: polymer conjugate, label 6A250K; polymer and attachment site not described for this conjugate
notes: also called R3643-6A
With B2, the Kd amounted to 1.25 pM in assay [2], 1.04 pM in [3], 1.47 pM in [7] and 1.3 pM in [6]. The koff in assay [2] came out at 9.46e-05 s⁻¹; in assay [3] it was 5.85e-05 s⁻¹; in assay [7] it was 5.13e-05 s⁻¹. Besides, the kon in [2] came out at 7.6e+07 M⁻¹ s⁻¹; in assay [3], 5.62e+07 M⁻¹ s⁻¹; in assay [7] it was 3.48e+07 M⁻¹ s⁻¹. Moreover, the figures for the t½ in [2], in [3] and in assay [7] were 2.03 h, 3.29 h and 3.76 h, respectively.

B3: TAF (PDGFRβ-GS10-anti-VEGF-A heavy chain/anti-VEGF-A light chain) (other)
heavy: LVVTPPGPELVLNVSSTFVLTCSGSAPVVWERMSQEPPQEMAKAQDGTFSSVLTLTNLTGLDTGEYFCTHNDSRGLETDERKRLYIFVPDPTVGFLPNDAEELFIFLTEITEITIPCRVTDPQLVVTLHEKKGDVALPVPYDHQRGFSGIFEDRSYICKTTIGDREVDSDAYYVYRLQVSSINVSVNAVQTVVRQGENITLMCIVIGNEVVNFEWTYPRKESGRLVEPVTDFLLDMPYHIRSILHIPSAELEDSGTYTCNVTESVNDHQDEKAINITVVESGGGGGSGGGGSEVQLVESGGGLVQPGGSLRLSCAASGYDFTHYGMNWVRQAPGKGLEWVGWINTYTGEPTYAADFKRRFTFSLDTSKSTAYLQMNSLRAEDTAVYYCAKYPYYYGTSHWYFDVWGQGTLVTVSSASTKGPSVFPLAPSSKSTSGGTAALGCLVKDYFPEPVTVSWNSGALTSGVHTFPAVLQSSGLYSLSSVVTVPSSSLGTQTYICNVNHKPSNTKVDKKVEPKSCDKTHTCPPCPAPEAAGAPSVFLFPPKPKDTLMISRTPEVTCVVVDVSHEDPEVKFNWYVDGVEVHNAKTKPREEQYNSTYRVVSVLTVLHQDWLNGKEYKCKVSNKALPAPIEKTISKAKGQPREPQVYTLPPSREEMTKNQVSLTCLVKGFYPSDIAVEWESNGQPENNYKTTPPVLDSDGSFFLYSKLTVDKSRWQQGNVFSCSVMHEALHNHYTQKSLSLSPGK
light: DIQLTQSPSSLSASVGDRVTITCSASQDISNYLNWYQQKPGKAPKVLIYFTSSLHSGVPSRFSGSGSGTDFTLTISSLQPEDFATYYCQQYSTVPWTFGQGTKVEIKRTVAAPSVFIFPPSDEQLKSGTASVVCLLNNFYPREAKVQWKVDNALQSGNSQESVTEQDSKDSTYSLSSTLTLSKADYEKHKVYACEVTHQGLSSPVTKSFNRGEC
modifications: Glycosylated PDGFR segment. The molecule is a dimer of two fusion heavy chains and two light chains.
notes: PDGFR-beta trap fused to the N-terminus of an anti-VEGF-A IgG1 heavy chain; also called TAF-WT; TAFwt
With B3, in assay [2], the Kd turned out to be 1.01 pM, the koff came out at 8.01e-05 s⁻¹, the kon turned out to be 7.97e+07 M⁻¹ s⁻¹ and the t½ worked out at 2.4 h. In addition, in assay [3], the Kd was determined as 1.15 pM, the koff turned out to be 9.19e-05 s⁻¹, the kon was determined as 8.01e+07 M⁻¹ s⁻¹ and the t½ was determined as 2.09 h. Moreover, in assay [7], the Kd was 1.19 pM, the koff was 0.000103 s⁻¹, the kon was found to be 8.65e+07 M⁻¹ s⁻¹ and the t½ amounted to 1.87 h. The Kd in assay [6] came out at 1.1 pM.

B4: TAF347 (PDGFRβ-GS10-anti-VEGF-A heavy chain (Q347C)/anti-VEGF-A light chain) (other)
heavy: LVVTPPGPELVLNVSSTFVLTCSGSAPVVWERMSQEPPQEMAKAQDGTFSSVLTLTNLTGLDTGEYFCTHNDSRGLETDERKRLYIFVPDPTVGFLPNDAEELFIFLTEITEITIPCRVTDPQLVVTLHEKKGDVALPVPYDHQRGFSGIFEDRSYICKTTIGDREVDSDAYYVYRLQVSSINVSVNAVQTVVRQGENITLMCIVIGNEVVNFEWTYPRKESGRLVEPVTDFLLDMPYHIRSILHIPSAELEDSGTYTCNVTESVNDHQDEKAINITVVESGGGGGSGGGGSEVQLVESGGGLVQPGGSLRLSCAASGYDFTHYGMNWVRQAPGKGLEWVGWINTYTGEPTYAADFKRRFTFSLDTSKSTAYLQMNSLRAEDTAVYYCAKYPYYYGTSHWYFDVWGQGTLVTVSSASTKGPSVFPLAPSSKSTSGGTAALGCLVKDYFPEPVTVSWNSGALTSGVHTFPAVLQSSGLYSLSSVVTVPSSSLGTQTYICNVNHKPSNTKVDKKVEPKSCDKTHTCPPCPAPEAAGAPSVFLFPPKPKDTLMISRTPEVTCVVVDVSHEDPEVKFNWYVDGVEVHNAKTKPREEQYNSTYRVVSVLTVLHQDWLNGKEYKCKVSNKALPAPIEKTISKAKGQPREPCVYTLPPSREEMTKNQVSLTCLVKGFYPSDIAVEWESNGQPENNYKTTPPVLDSDGSFFLYSKLTVDKSRWQQGNVFSCSVMHEALHNHYTQKSLSLSPGK
light: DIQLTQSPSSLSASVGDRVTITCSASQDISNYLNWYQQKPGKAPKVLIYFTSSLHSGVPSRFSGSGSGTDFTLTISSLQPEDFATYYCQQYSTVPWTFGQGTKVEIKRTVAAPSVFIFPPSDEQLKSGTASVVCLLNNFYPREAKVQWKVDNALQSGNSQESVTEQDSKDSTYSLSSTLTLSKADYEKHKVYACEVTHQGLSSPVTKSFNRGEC
notes: Same as TAF except for Q347C (EU numbering); also called TAF-347C
Regarding B4, in assay [2], the Kd came to 2.03 pM, the koff came to 8.41e-05 s⁻¹, the association rate constant (kon) amounted to 4.15e+07 M⁻¹ s⁻¹ and the t½ turned out to be 2.29 h. In assay [3], the Kd was 1.35 pM, the koff came to 7.87e-05 s⁻¹, the kon came to 5.82e+07 M⁻¹ s⁻¹ and the t½ turned out to be 2.45 h. Besides, in [6], the Kd was found to be 1.7 pM.
In the case of B5, the “Inhibition of VEGF induced proliferation of HRMVECs, IC50” value with rhVEGFA-165 amounted to 550 pM.
Regarding B6, the affinity in the assay with aflibercept, expressed as Kd, was 1.56 pM.
